{"source": "patent US9265844B2", "about": "“Protease degradable polypeptides and uses thereof” (THE METHODIST HOSPITAL SYSTEM, priority 2010, dated 2016)", "format_in_all_cases": "biochemical", "key": {"[1]": {"target": "T1, Cath E (Homo sapiens, UniProt P14091)", "T1 sequence (P14091 54-396)": "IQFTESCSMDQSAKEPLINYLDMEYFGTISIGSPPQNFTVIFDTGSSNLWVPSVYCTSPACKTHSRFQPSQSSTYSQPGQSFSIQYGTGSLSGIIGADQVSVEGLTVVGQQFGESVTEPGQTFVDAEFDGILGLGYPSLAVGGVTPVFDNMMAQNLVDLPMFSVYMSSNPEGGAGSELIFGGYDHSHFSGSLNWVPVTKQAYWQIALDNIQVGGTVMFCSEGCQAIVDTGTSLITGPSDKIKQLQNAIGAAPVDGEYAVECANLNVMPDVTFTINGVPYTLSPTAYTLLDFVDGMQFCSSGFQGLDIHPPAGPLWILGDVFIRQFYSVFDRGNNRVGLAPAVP", "assay": "FRET hydrolysis of quenched substrates a-e by Cath E", "parameters": "purchased Calbiochem, EMD Bioscience (Gibbstown, N.J.)", "details": "for time to saturation of fluorescence on activation by Cath E: 23 pmol Cath E", "experimental": "(§1) The catalytic selectivity of Cath E and Cath D was determined fluorometrically by FRET-based hydrolysis of intramolecularly quenched peptide substrates a-e. Fluorogenic substrates a-e (10 μL, 200 μM) were incubated with 23 pmol of Cath E or Cath D in 50 mM sodium acetate buffer, pH 4, containing 150 mM NaCl, and the total volume was brought to 100 μL, using the same buffer. Cath S and Cath B were pre-activated by incubation with 100 mM sodium acetate buffer solution, pH 6.5, containing 5 mM DTT and 5 mM EDTA for 5 minutes. Cath S and Cath B (23 pmol) were incubated with 10 μL, of 200 μM fluorogenic substrate e at 100 mM sodium acetate buffer solution, pH6.5, containing 5 mM DTT and 5 mM EDTA, and the total volume was brought to 100 μL, using the same buffer. All assays were performed in triplicate in 96 well black walls, clear-bottom plates (Corning, N.Y.). The change in the fluorescence intensity was monitored over time using SpectraMax.M2^e fluorescence spectrophotometer (Molecular Devices; Sunnyvale, Calif.) at excitation wavelength (λex) of 340 nm and emission wavelength (λem) of 405 nm at 37° C. Control experiments were performed simultaneously by replacing the enzyme with assay buffer."}, "[2]": {"target": "T2, Cath B (Homo sapiens, UniProt P07858)", "T2 construct": "purchased Calbiochem, EMD Bioscience (Gibbstown, N.J.)", "assay": "FRET hydrolysis of substrate e by Cath B", "details": "90 minutes, pH 6.5", "experimental": "as §1"}, "[3]": {"target": "T1, Cath E", "assay": "Enzyme digestion, fragments by RP-HPLC and ESI-MS (Cath E)", "parameters": "purchased Calbiochem, EMD Bioscience (Gibbstown, N.J.)", "details": "excess Cath E, 37° C., 3 hours", "experimental": "Substrate e was subjected to aspartic peptidase digestion using Cath E and Cath D. Fluorogenic substrate e (10 μL, 100 μM) was incubated at 37° C. for 3 hours with excess Cath E or Cath D (˜119 pmol) in 100 μL, of 50 mM sodium acetate buffer (pH 4) containing 150 mM NaCl. The resulting digestion fragments were analyzed by the aforementioned analytical RP-HPLC and ESI-MS."}, "[4]": {"target": "T3, Cath D (Homo sapiens, UniProt P07339)", "T3 sequence (P07339 65-412)": "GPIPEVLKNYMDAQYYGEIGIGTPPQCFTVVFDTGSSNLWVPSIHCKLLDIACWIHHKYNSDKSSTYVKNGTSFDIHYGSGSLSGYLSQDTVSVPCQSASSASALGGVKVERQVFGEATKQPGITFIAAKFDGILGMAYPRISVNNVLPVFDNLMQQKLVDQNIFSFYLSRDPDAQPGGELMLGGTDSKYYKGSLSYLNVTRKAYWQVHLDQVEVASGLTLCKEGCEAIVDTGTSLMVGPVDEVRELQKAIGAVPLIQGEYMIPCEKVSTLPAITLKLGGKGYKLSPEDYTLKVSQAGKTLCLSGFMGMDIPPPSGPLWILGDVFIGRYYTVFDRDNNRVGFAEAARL", "assay": "Enzyme digestion, fragments by RP-HPLC and ESI-MS (Cath D)", "details": "high dose of Cath D, overnight hydrolysis", "experimental": "Substrate e was subjected to aspartic peptidase digestion using Cath E and Cath D. […] The resulting digestion fragments were analyzed by the aforementioned analytical RP-HPLC and ESI-MS."}, "[5]": {"target": "T4, Cath S (Homo sapiens, UniProt P25774)", "T4 construct": "purchased Calbiochem, EMD Bioscience (Gibbstown, N.J.)", "T4 sequence (P25774 115-331)": "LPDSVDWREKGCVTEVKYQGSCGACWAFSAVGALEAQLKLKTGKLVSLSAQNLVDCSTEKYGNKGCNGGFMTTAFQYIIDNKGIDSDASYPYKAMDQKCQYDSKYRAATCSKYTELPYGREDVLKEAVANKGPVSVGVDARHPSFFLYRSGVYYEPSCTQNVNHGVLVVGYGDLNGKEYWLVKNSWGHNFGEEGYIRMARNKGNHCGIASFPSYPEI", "assay": "FRET hydrolysis of substrate e by Cath S", "details": "90 minutes, pH 6.5", "experimental": "as §1"}, "[6]": {"target": "T3, Cath D", "assay": "FRET hydrolysis of quenched substrates a-e by Cath D", "details": "compared among substrates a-e", "experimental": "as §1"}, "[7]": {"target": "T1, Cath E", "assay": "Reported specificity constants of Cath E for various substrates", "parameters": "purchased Calbiochem, EMD Bioscience (Gibbstown, N.J.)", "details": "sequence 3 vs sequence 2", "description": "Table 4 compiles the reported specificity constant (Kcat/Km) of Cath E and Cath D using various substrates including peptide substrate e. […] The specificity constant of Cath E for substrate e represents one of the highest reported Kcat/Km values."}, "[8]": {"substrate": "COc1ccc2c(CC(=O)N[C@@H](C)C(=O)NCC(=O)N[C@@H](Cc3ccccc3)C(=O)N[C@@H](CO)C(=O)N[C@@H](CC(C)C)C(=O)N3CCC[C@H]3C(=O)N[C@@H](C)C(=O)N[C@@H](CCCCNc3ccc([N+](=O)[O-])cc3[N+](=O)[O-])C(=O)N[C@H](CCCNC(=N)N)C(N)=O)cc(=O)oc2c1", "assay": "Kinetic parameters of substrate e hydrolysis by Cath E", "details": "other: Cath E 6.8 nM, pH 4.0, 10 minutes, 37° C., Woolf transformation", "experimental": "The initial rates of substrate e hydrolysis by Cath E were monitored using a fluorescence plate-reader. Hydrolysis of different substrate e concentrations, 10, 20, 40 and 60 μM, was performed at pH 4 in 50 mM sodium acetate buffer containing 150 mM NaCl. Cath E with various concentrations, 2.27, 4.55, 6.82 nM, were incubated with substrate e and the changes in the fluorescence intensities were monitored for 10 minutes. The substrate e hydrolysis was determined by integrating the fluorescence intensity, and plotted by the amount of the hydrolyzed substrate e over time.\nThe initial velocities of the hydrolysis reactions were measured between 0 and 10 minutes using several concentrations of substrate e including: 5, 10, 20, 40, 60, 80, 100 μM. All of the used substrate e concentrations were much higher than the concentrations of enzyme (2.3, 4.5 and 6.8 nM). To measure the initial rates of the substrate e proteolysis and to determine Michaelis-Menten kinetic parameters Vmax and Km of the Cath E and Cath D, the Michaelis-Menten equation was transformed using the Woolf kinetic transformation [S/v=(S/Vmax)+(Km/Vmax)]. The initial velocity was calculated from the slope during the linear phase of the reaction and S/Vplotted versus substrate e concentration. The graph representation gave straight lines and Vmax and Km were calculated by the linear regression of the line to obtain the slope and intercept. The turnover number of Cath E enzyme (Kcat) was calculated using the equation Kcat=Vmax/[Cath E], where [Cath E] represents the Cath E concentration in μM and Vmax is the maximum velocity in μM S-1. All the reactions and measurements were carried out in 50 mM sodium acetate buffers (pH 4.0) using the aforementioned setting."}}, "note": "Non-standard residues stand in square brackets, D forms with d. Residues, ends and D or L forms follow the SMILES beside them. *: point of attachment. Dnp = O=[N+]([O-])c1ccc(*)c([N+](=O)[O-])c1; Mca = COc1ccc2c(CC(=O)*)cc(=O)oc2c1", "data": [{"molecule": "COc1ccc2c(CC(=O)N[C@@H](C)C(=O)NCC(=O)N[C@@H](Cc3ccccc3)C(=O)N[C@@H](CO)C(=O)N[C@@H](CC(C)C)C(=O)N3CCC[C@H]3C(=O)N[C@@H](C)C(=O)N[C@@H](CCCCNc3ccc([N+](=O)[O-])cc3[N+](=O)[O-])C(=O)N[C@H](CCCNC(=N)N)C(N)=O)cc(=O)oc2c1", "note": "[Substrate e, Mca-Ala-Gly-Phe-Ser-Leu**Pro-Ala-Lys(Dnp)-DArg-CONH2] (Mca-AGFSLPAK(Dnp)[dR]-NH2)", "values": [{"measurement": "time to saturation of fluorescence on activation by Cath E", "setting": "[1]; 200 μM substrate, pH 4.0", "value": "≤ 10", "unit": "min"}, {"measurement": "net fluorescence signal ratio (Cath E/Cath D)", "setting": "[1]; 1 minute / initial time point, 200 μM substrate, 23 pmol enzyme, pH 4.0", "value": 265, "unit": "fold"}, {"measurement": "fluorescent signal increase relative to that observed with Cath E", "setting": "[2]", "value": "less than 15%"}, {"measurement": "cleavage site", "setting": "[3]", "value": "exclusively between Leu^5 and Pro^6"}, {"measurement": "cleavage sites", "setting": "[4]", "value": "two minor cleavage sites"}, {"measurement": "fluorescent signal increase relative to that observed with Cath E", "setting": "[5]", "value": "less than 15%"}]}, {"molecule": "Mca-Ala-Gly-Phe-Ser-Leu**Gly-Pro-Lys(Dnp)-DArg-CONH2 (Mca-AGFSLGPK(Dnp)[dR]-NH2; SMILES COc1ccc2c(CC(=O)N[C@@H](C)C(=O)NCC(=O)N[C@@H](Cc3ccccc3)C(=O)N[C@@H](CO)C(=O)N[C@@H](CC(C)C)C(=O)NCC(=O)N3CCC[C@H]3C(=O)N[C@@H](CCCCNc3ccc([N+](=O)[O-])cc3[N+](=O)[O-])C(=O)N[C@H](CCCNC(=N)N)C(N)=O)cc(=O)oc2c1) [Substrate d]", "values": [{"measurement": "time to saturation of fluorescence on activation by Cath E", "setting": "[1]; 200 μM substrate, pH 4.0", "value": "did not reach saturation within the monitored period"}]}, {"molecule": "Mca-Gly-Ser-Pro-Ala-Phe**Leu-Ala-Lys(Dnp)-DArg-CONH2 (Mca-GSPAFLAK(Dnp)[dR]-NH2; SMILES COc1ccc2c(CC(=O)NCC(=O)N[C@@H](CO)C(=O)N3CCC[C@H]3C(=O)N[C@@H](C)C(=O)N[C@@H](Cc3ccccc3)C(=O)N[C@@H](CC(C)C)C(=O)N[C@@H](C)C(=O)N[C@@H](CCCCNc3ccc([N+](=O)[O-])cc3[N+](=O)[O-])C(=O)N[C@H](CCCNC(=N)N)C(N)=O)cc(=O)oc2c1) [Substrate a]", "values": [{"measurement": "fluorescence increase / hydrolysis upon incubation with Cath D", "setting": "[6]", "value": "the highest among all investigated substrates"}, {"measurement": "fluorescence increase upon incubation with Cath E", "setting": "[1]; compared among substrates a-e", "value": "the fastest increase and the highest fluorescence signal among all investigated substrates"}, {"measurement": "Kcat/Km for Cath E relative to sequence 2", "setting": "[7]", "value": "around 16 fold"}]}, {"molecule": "Cath E (Homo sapiens) (protein, purchased Calbiochem, EMD Bioscience (Gibbstown, N.J.)) IQFTESCSMDQSAKEPLINYLDMEYFGTISIGSPPQNFTVIFDTGSSNLWVPSVYCTSPACKTHSRFQPSQSSTYSQPGQSFSIQYGTGSLSGIIGADQVSVEGLTVVGQQFGESVTEPGQTFVDAEFDGILGLGYPSLAVGGVTPVFDNMMAQNLVDLPMFSVYMSSNPEGGAGSELIFGGYDHSHFSGSLNWVPVTKQAYWQIALDNIQVGGTVMFCSEGCQAIVDTGTSLITGPSDKIKQLQNAIGAAPVDGEYAVECANLNVMPDVTFTINGVPYTLSPTAYTLLDFVDGMQFCSSGFQGLDIHPPAGPLWILGDVFIRQFYSVFDRGNNRVGLAPAVP", "values": [{"measurement": "Km", "setting": "[8]", "value": 19.37, "unit": "µM"}, {"measurement": "Vmax", "setting": "[8]", "value": 2.2, "unit": "μM S^−1"}, {"measurement": "kcat", "setting": "[8]", "value": 322.5, "unit": "S^−1"}, {"measurement": "kcat/Km", "setting": "[8]", "value": 16.7, "unit": "μM^−1 S^−1"}]}]}
